Data taken from patent publication US10280218B2, “Antibodies binding to BMP4, and uses thereof” (ACADEMISCH MEDISCH CENTRUM, priority 2014, dated 2019).

B1: hNoggin (protein)
chain: QHYLHIRPAPSDNLPLVDLIEHPDPIFDPKEKDLNETLLRSLLGGHYDPGFMATSPPEDRPGGGGGAAGGAEDLAELDQLLRQRPSGAMPSEIKGLEFSEGLAQGKKQRLSKKLRRKLQMWLWSQTFCPVLYAWNDLGSRFWPRYVKVGSCFSKRSCSVPEGMVCKPSKSVHLTVLRWRCQRRGGQRCGWIPIQYPIISECKCSC
B2: C8E7: E7 linked to C8, hetero-dimer VHH bihead (protein)
chain: EVQLVESGGGLVQAGGSLRLSCAASGRTFRINDMGWYRQAPGKSRDMVARITSGGNTNYADSVKGRFTISRDNAKNTVYLQMNSLKPEDTAVYYCNADGLRFDSTRYRPFDSWGQGTQVTVSSGGGGSGGGGSEVQLVESGGGLVQAGGSLRLSCAASGSIRGFVAMAWYRQAPGKQREWVATVTNGGTLYGDSVKGRFTGSRDNAKNTVYLQMNSLKPEDTAVYYCALRQIGASGYDYWGQGTQVTVSS

Tests used:
BMP7 = biological target: T1, BMP7 (Homo sapiens, UniProt P18075); experiment: BMP activity luciferase reporter assay (BRE-luciferase, ID1 promoter) in C2C12 cells; type: cell-based, mouse; conditions: 200 ng/ml hBMP7, 16 h; 500 ng/ml
T1 sequence (P18075 293-431): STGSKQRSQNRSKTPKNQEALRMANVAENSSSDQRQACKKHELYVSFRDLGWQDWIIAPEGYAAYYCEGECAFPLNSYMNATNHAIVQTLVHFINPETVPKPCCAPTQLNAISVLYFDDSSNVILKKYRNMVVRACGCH
Procedure: One of the most studied BMP target genes is the Inhibitor of Differentiation 1 (ID1). This is an immediate early gene that is activated by binding of the phosphorylated SMADs to its promoter region (López-Rovira et al., 2002). Thus, we employed the BMP-responsive C2C12 cells, which are stably transfected with the BRE-luciferase vector containing the BMP-Responsive-Element (the mouse ID1 promoter) cloned into the pGL3 luciferase vector (Zilberberg 2007). […] C2C12 cells were treated with the different BMPs with or without our VHHs or human Noggin at a concentration of 5 μg/ml. Luciferase activity was measured after 16 hours incubation. Most of the transcriptional data is in concordance with the results obtained with the phosphorylation of SMAD1/5/8.
C2C12 cells were plated in 96-well plates at 5×10^3 cells/well and cells were allowed to attach overnight. 100 μl of DMEM with 0.1% BSA were added in each well. VHH antibodies and human Fc-Noggin at the indicated concentrations were added at the same time. Wells with unstimulated cells were added as controls. Cells were treated in triplicate with the BMPs at the indicated concentrations for 16 hours. Luciferase activity was measured by adding 100 μl of luciferase substrate solution from the Bright-Glo™ Luciferase Assay System (Promega Benelux, Leiden, The Netherlands). After 3 minutes of incubation, luciferase activity was measured with Synergy HT Multi-Mode Microplate Reader (Biotek, Winooski, Vt., United States). Luciferase values were normalized to background activity (activity of wells with no cells) and represented as ratio to the activity of BMP-stimulated cells.
C2C12 cells were cultured in 96-well plates at 5×10^3 cells/well. […]

endogenous BMP activity = experiment: BRE-luciferase activity of supernatants of mouse intestinal organoid cultures; type: cell-based; conditions: supernatants of day 3; C4C4 100 ng/ml, C8C8 500 ng/ml or 5 μg/ml
Procedure: Finally, the VHHs were tested in an intestinal organoid culture system for their ability to neutralize the function of BMP4 ex vivo. Inhibition of BMP activity is one of the requirements to maintain Intestinal Stem Cells in vitro cultured as “organoids” that mimic crypt-villus structures and is usually provided by the addition of Noggin to the media. Murine small intestine organoids were cultured in the presence or absence of the VHH biheads and compared to Noggin. To precisely determine which BMPs are present in these cultures, BMP secretion was measured in the conditioned media of intestinal organoids grown without Noggin for three days. Whereas BMP2, BMP4 and BMP6 could be detected by ELISA (FIG. 14A), BMP5 levels were negative, most likely due to the low sensitivity of the ELISA assay (>250 pg/mL), and not due to the lack of BMP5 in these cultures. Indeed, analysis of the protein lysates of these organoids, detected the presence of BMP2, BMP4, BMP5 and BMP6 (FIG. 14B). Next, freshly isolated crypts from murine small intestines were cultured with the VHHs and tested for their ability to provide endogenous BMP inhibition and to sustain organoid cultures ex vivo. […]
Organoids were cultured as previously described (Sato et al., 2009). […] Crypts were counted and resuspended in matrigel. […]

Molecule | inhibition of BMP-7 signals, comparison of inhibitors (BMP7) | inhibition of endogenous BMP activity ex vivo (BRE-luciferase activity of organoid supernatants) (endogenous BMP activity)
B1 | inhibited | 
B2 |  | to the same level as the natural inhibitor Noggin
